These are literature values, as cited in paper PMC4871753.

In this data set the target is RXFP1 (Homo sapiens) (UniProt Q9HBX9).
UniProt Q9HBX9, sequence (Q9HBX9 whole entry): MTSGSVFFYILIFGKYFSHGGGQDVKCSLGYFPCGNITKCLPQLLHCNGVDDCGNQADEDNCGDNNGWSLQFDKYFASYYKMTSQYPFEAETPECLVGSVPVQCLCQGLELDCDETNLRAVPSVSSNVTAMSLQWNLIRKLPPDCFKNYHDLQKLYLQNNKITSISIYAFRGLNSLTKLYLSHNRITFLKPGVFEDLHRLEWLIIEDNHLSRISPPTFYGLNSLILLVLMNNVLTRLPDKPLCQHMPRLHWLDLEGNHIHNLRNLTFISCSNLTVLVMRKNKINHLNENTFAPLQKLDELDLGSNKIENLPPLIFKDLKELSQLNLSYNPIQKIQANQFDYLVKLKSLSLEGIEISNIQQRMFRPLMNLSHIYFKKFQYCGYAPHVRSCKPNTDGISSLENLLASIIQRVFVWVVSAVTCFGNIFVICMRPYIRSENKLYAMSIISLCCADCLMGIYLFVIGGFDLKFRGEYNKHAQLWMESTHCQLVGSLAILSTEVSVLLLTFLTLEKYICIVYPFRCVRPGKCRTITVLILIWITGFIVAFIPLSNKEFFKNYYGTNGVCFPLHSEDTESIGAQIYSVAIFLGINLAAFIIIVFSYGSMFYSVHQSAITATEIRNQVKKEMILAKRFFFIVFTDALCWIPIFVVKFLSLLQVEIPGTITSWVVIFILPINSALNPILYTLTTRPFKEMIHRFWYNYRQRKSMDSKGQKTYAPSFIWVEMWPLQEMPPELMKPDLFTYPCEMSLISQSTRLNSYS

The Kd is the free concentration of one partner at which half of the binding sites on the other are occupied at equilibrium, for simple one-to-one binding. For the substance “NLuc-conjugated relaxin (from UniProt P04090)”, the Kd is 1.11 nM.
